This is an account of results in paper PMC5501846, “X-Ray snapshots of a pyridoxal enzyme: a catalytic mechanism involving concerted [1,5]-hydrogen sigmatropy in methionine γ-lyase” (Scientific Reports, 2017).

Data set [1] has as its target T1, EhMGL1 (Entamoeba histolytica, UniProt Q86D28).
T1 construct: gene metg; homotetramer
T1 sequence (Q86D28 1-389): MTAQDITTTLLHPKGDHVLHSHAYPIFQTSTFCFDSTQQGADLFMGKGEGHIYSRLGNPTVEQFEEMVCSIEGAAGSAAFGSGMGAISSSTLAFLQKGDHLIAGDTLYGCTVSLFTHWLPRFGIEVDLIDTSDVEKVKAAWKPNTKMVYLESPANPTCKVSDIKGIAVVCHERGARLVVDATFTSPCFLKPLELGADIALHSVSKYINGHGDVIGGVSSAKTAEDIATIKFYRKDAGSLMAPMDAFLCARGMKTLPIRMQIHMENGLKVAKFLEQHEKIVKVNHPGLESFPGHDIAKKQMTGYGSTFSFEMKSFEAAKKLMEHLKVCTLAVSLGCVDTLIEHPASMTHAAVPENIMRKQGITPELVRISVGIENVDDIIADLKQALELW
The data set is described as follows: X-ray crystallography of methionine-soaked crystals. Type of data set: binding. The note with it: covalent Schiff base with PLP in intermediates; Michaelis complex also seen; 50 mM L-methionine soak 30–120 s, 293 K.

Data set [2] concerns the target L-methionine γ-lyase from Entamoeba histolytica (EhMGL1) (Entamoeba histolytica). Nature of the data set: crystal structure; hanging-drop vapor diffusion at 277 K, 1.8 M ammonium sulfate, 0.1 M cacodylate pH 6.6, 0.1 M lithium citrate, 100 μM PLP; substrate-free and methionine-soaked crystals (50 mM L-methionine, 30-120 s, 293 K); tetramer of two catalytic dimers in the crystal.

The target of data set [3] is T1, EhMGL1. Nature of the data set: X-ray crystallography, […] Å. The conditions noted are these: covalent, Schiff base with Lys205; substrate-free enzyme. Type of data set: binding.
Substrate in data set [4]: COCC[C@H](N)C(=O)O
The data set is described as follows: purified protein. The conditions noted are these: 100 mM phosphate pH 7.0, 1 mM DTT, 20 μM PLP, 37 °C.

Substrate in data set [5]: C[Se]CC[C@H](N)C(=O)O
Nature of the data set: purified protein. The conditions noted are these: 100 mM phosphate pH 7.0, 1 mM DTT, 20 μM PLP, 37 °C.

For `CSCC[C@H](N)C(=O)O` [CH3S, L-methionine], in data set [1], the “X-ray crystallography of methionine-soaked crystals” value is given as “Crystals of EhMGL1 complexed with reaction intermediates were prepared by soaking crystals”.

On to “L-methionine γ-lyase from Entamoeba histolytica (EhMGL1) (enzyme)”, for which, in data set [2], the stoichiometry N (in general, the number of molecules, sites or subunits per partner or assembly) worked out at 4.

For `Cc1ncc(COP(=O)(O)O)c(C=O)c1O` [pyridoxal 5′-phosphate], the “X-ray crystallography, 1.97 Å” value in data set [3] is recorded as “the active site binds a PLP cofactor that forms a Schiff base”.

B1: EhMGL1 (Entamoeba histolytica) (protein)
chain: T1 sequence (Q86D28 1-389)
On to B1, for which, in data set [4], the Km (in general, the substrate concentration at which the rate is half of its maximum) was determined as 2.50 ± 0.24 mM; the kcat (commonly the maximal rate divided by the concentration of active sites) came to 1.04 ± 0.35 s⁻¹; the specificity constant (kcat/Km) – broadly, the turnover number divided by the Michaelis constant – worked out at 420 ± 150 M⁻¹ s⁻¹. For the same molecule, in data set [5], the Km is 0.41 ± 0.07 mM.
